Biological target: CD20 on CD20-positive human lymphoma cell lines Raji and Daudi (human) (UniProt P11836)
Test: cell-based or functional assay

Chain of UniProt P11836 (P11836 whole entry): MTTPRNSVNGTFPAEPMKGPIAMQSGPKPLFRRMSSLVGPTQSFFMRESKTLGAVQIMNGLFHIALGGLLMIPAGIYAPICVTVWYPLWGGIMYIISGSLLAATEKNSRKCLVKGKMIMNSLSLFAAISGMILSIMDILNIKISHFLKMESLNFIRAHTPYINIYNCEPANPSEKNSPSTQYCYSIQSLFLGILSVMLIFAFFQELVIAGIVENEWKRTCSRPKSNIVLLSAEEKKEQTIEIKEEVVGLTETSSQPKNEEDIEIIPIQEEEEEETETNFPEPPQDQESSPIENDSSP

percentage of lysed target cells, Daudi, E:T 2:1 (Ctrl-gdT cells without rituximab: 19.68%): 41.2%
percentage of lysed target cells, Daudi, E:T 10:1 (Ctrl-gdT cells without rituximab: 43.66%): 71.2%
percentage of lysed target cells, Raji, E:T 10:1 (Ctrl-gdT cells without rituximab: 43.13%): 69.4%
Substance: rituximab (commercially available anti-CD20 antibody, Rituxan), conjugated to an ssDNA linker and hybridised to the surface of gdT cells (ACE-gdT-CD20 cells)
